Experimental data: PMC4067145 (Biochemistry, 2014)

How the values were obtained:
[1] = biological target: T1, full-length human U1A protein (human, UniProt P09012 1-282); experiment: ITC
[2] = biological target: T1, full-length human U1A protein; experiment: ITC; remark: listed apart in the source
[3] = biological target: T2, full-length human U2B″ protein (human, UniProt P08579 1-225); experiment: ITC
[4] = biological target: T2, full-length human U2B″ protein; experiment: ITC; remark: listed apart in the source
[5] = biological target: T2, full-length human U2B″ protein; experiment: other fluorescence titration
[6] = biological target: T1, full-length human U1A protein; experiment: other fluorescence titration
[7] = biological target: T2, full-length human U2B″ protein; experiment: other fluorescence titration; remark: listed apart in the source

T2 sequence (P08579 whole entry): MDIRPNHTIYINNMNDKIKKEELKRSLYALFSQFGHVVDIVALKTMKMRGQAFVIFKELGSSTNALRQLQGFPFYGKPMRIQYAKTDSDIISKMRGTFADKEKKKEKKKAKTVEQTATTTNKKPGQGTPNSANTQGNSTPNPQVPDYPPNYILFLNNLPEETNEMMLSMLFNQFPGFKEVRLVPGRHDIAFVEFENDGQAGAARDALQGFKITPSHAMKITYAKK

B1: human U2A′ protein, truncated form that included the first 180 amino acids (LRR domain) (domain or fragment)
chain: MVKLTAELIEQAAQYTNAVRDRELDLRGYKIPVIENLGATLDQFDAIDFSDNEIRKLDGFPLLRRLKTLLVNNNRICRIGEGLDQALPCLTELILTNNSLVELGDLDPLASLKSLTYLSILRNPVTNKKHYRLYVIYKVPQVRVLDFQKVKLKERQEAEKMFKGKRGAQLAKDIARRSKT
B1 showed a Kd [1] of 1000 nM, a Kd [2] of 830 nM and a Kd [3] of 5.9 nM. It also gave a Kd [4] of 6 nM, a Kd [5] of 5.1 nM and a Kd [6] of 1400 nM. The Kd [7] was 4.4 nM.
